Data as given in paper PMC8823246 (Journal for Immunotherapy of Cancer, 2022).

Target: T1, recombinant human VISTA-Fc protein (human, UniProt Q9H7M9 33-194)
T1 sequence (looked up): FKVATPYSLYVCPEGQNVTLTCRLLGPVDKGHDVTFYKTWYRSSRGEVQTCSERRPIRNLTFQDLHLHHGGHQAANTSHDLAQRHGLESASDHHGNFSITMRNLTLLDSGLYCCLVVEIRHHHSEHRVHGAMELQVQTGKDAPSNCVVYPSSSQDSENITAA
Assay: ELISA

EC50: 24 nM
B1: recombinant human VSIG3-Fc (Fc fusion, UniProt Q5DX21 23-241, looked up)
chain: LEVSESPGSIQVARGQPAVLPCTFTTSAALINLNVIWMVTPLSNANQPEQVILYQGGQMFDGAPRFHGRVGFTGTMPATNVSIFINNTQLSDTGTYQCLVNNLPDIGGRNIGVTGLTVLVPPSAPHCQIQGSQDIGSDVILLCSSEEGIPRPTYLWEKLDNTLKLPPTATQDQVQGTVTIRNISALSSGLYQCVASNAIGTSTCLLDLQVISPQPRNIG
modifications: biotin (biotinylated using Invitrogen kit #21455) in the inhibition assay
